Experimental data reported in the RNAGym collection of RNA variant scans (doi:10.7554/elife.90254).

B1: LINE1-full (parent)
chain: UACGUAGGUGGUUUUCCCCUGAUAGUGCUAAGGGGGCCUGGAAGUUUGGACUGGGCAGAGCUCAACACAGCGUGGCAAAGUGGCUGUGGCUAGACUGCCUCUCUGGAUUCCUCGUCACUCAGCAGGGCAUCUCUGAGAGAAAUGCC

Variants of: B1
Assay: self-cleavage, relative activity (ratio to wild type); higher = more cleavage; in vitro, sequencing; the parent is a self-cleaving ribozyme

Variant	self-cleavage
UACGUAGGUGGUUUUCCCCUGAUAGUGCUAAGGGGGCCUGGAAGUUUGGACUGGGCAGAGCUCAACACAGCGUGGCCAAGUGGCUGUGGCAAGACUGCCUCUCUGGAUUCCUCGUCACUCAGCAGGGCAUCUCUGAGAGAAAUGCC [A77C U91A]	0.38
UACGUAGGUGGUUUUCCCCUGAUAGUGCUAAGGGGGCCUGGAAGUUUGGACUGGGCAGAGCUCAACACAGCGUGGCCAAGUGGCUGUGGCUAGACUGCCUCUCUGGAUUCCUCGUCACUCAGCAGGGCAUCUCUGAGAGAAAUGCC [A77C]	0.98
UACGUAGGUGGUUUUCCCCUGAUAGUGCUAAGGGGGCCUGGAAGUUUGGACUGGGCAGAGCUCAACACAGCGUGGCGAAGUGGCUGUGGCUAGACUGCCUCUCUGGAUUCCUCGUCACUCAGCAGGGCAUCUCUGAGAGAAAUGCC [A77G]	2.12
UACGUAGGUGGUUUUCCCCUGAUAGUGCUAAGGGGGCCUGGAAGUUUGGACUGGGCAGAGCUCAACACAGCGUGGCGAGGUGGCUGUGGCUAGACUGCCUCUCUGGAUUCCUCGUCACUCAGCAGGGCAUCUCUGAGAGAAAUGCC [A77G A79G]	0.95
UACGUAGGUGGUUUUCCCCUGAUAGUGCUAAGGGGGCCUGGAAGUUUGGACUGGGCAGAGCUCAACACAGCGUGGCCAAGUGGCUGUGGCUAGACCGCCUCUCUGGAUUCCUCGUCACUCAGCAGGGCAUCUCUGAGAGAAAUGCC [A77C U96C]	0.09
UACGUAGGUGGUUUUCCCCUGAUAGUGCUAAGGGGGCCUGGAAGUUUGGACUGGGCAGAGCUCAACACAGCGUGGCCAAGUGGCUGUGGCUAGACUGCCUCUCUGGAUUCCUCGUCACUCGGCAGGGCAUCUCUGAGAGAAAUGCC [A77C A121G]	1.55
UACGUAGGUGGUUUUCCCCUGAUAGUGCUAAGGGGGCCUGGAAGUUUGGACUGGGCAGAGCUCAACACAGCGUGGCCAAGUGGCAGUGGCUAGACUGCCUCUCUGGAUUCCUCGUCACUCAGCAGGGCAUCUCUGAGAGAAAUGCC [A77C U85A]	0.18
UACGUAGGUGGUUUUCCCCUGAUAGUGCUAAGGGGGCCUGGAAGUUUGGACUGGGCAGAGCUCAACACAGCGUGGCCAAGUGGCUGUGGCUAGACUGCCUCUCUGGAUUCCUCGUCACUCAGCAGGGCAUCUCUGAGAGGAAUGCC [A77C A140G]	1.16
UACGUAGGUGGUUUUCCCCUGAUAGUGCUAAGGGGGCCUGGAAGUUUGGACUGGGCAGAGCUCAACACAGCGUGGCCAAGUGGCUGUGGCUAGACUGCCUCUCUGGAUUCCUCGUCACUCAGCAGAGCAUCUCUGAGAGAAAUGCC [A77C G126A]	1.25
UACGUAGGUGGUUUUCCCCUGAUAGUGCUAAGGGGGCCUGGAAGUUUGGACUGGGCAGAGCUCAACACAGCGUGGCCAAGUGGCUGUGGCUAGACUGCCUCUCUGGAUUCCUCGUCACUCAGCAGGGCAUCCCUGAGAGAAAUGCC [A77C U132C]	1.19
UACGUAGGUGGUUUUCCCCUGAUAGUGCUAAGGGGGCCUGGAAGUUUGGACUGGGCAGAGCUCAACACAGCGUGGCGAAGUGGCUGUGGCUAGUCUGCCUCUCUGGAUUCCUCGUCACUCAGCAGGGCAUCUCUGAGAGAAAUGCC [A77G A94U]	0.61
UACGUAGGUGGUUUUCCCCUGAUAGUGCUAAGGGGGCCUGGAAGUUUGGACUGGGCAGAGCUCAACACAGCGUGGCGAAGUGGCUGUGGCUAGGCUGCCUCUCUGGAUUCCUCGUCACUCAGCAGGGCAUCUCUGAGAGAAAUGCC [A77G A94G]	0.68
UACGUAGGUGGUUUUCCCCUGAUAGUGCUAAGGGGGCCUGGAAGUUUGGACUGGGCAGAGCUCAACACAGCGUGGCCAAGUGGCUGUGGCUAGACUGCCUCUCUGGAUUCCUCGUCACUCAGCGGGGCAUCUCUGAGAGAAAUGCC [A77C A124G]	0.32
UACGUAGGUGGUUUUCCCCUGAUAGUGCUAAGGGGGCCUGGAAGUUUGGACUGGGCAGAGCUCAACACAGCGUGGCCAAGUGGCUGUGGCUAGACUGCCUCUCUGGAUUCCUCGUCACUCAGCAGGGCAUCUCUGAGAGAAACGCC [A77C U143C]	1.12
UACGUAGGUGGUUUUCCCCUGAUAGUGCUAAGGGGGCCUGGAAGUUUGGACUGGGCAGAGCUCAACACAGCGUGGCCAAGUGGCUGUGGCUAGACUGCCUCUCUGGAUUCCUCGCCACUCAGCAGGGCAUCUCUGAGAGAAAUGCC [A77C U115C]	0.6
UACGUAGGUGGUUUUCCCCUGAUAGUGCUAAGGGGGCCUGGAAGUUUGGACUGGGCAGAGCUCAACACAGCGUGGCCAAGUGGCUGUGGCUAGACUGCCUCACUGGAUUCCUCGUCACUCAGCAGGGCAUCUCUGAGAGAAAUGCC [A77C U102A]	1.37
UACGUAGGUGGUUUUCCCCUGAUAGUGCUAAGGGGGCCUGGAAGUUUGGACUGGGCAGAGCUCAACACAGCGUGGUAAAGUGGCUGUGGCUAGACUGCCUCUCUGGAUUCCUCGUCACUCAGCAGGGCAUCUCUGAGAGAAAAGCC [C76U U143A]	2.12
UACGUAGGUGGUUUUCCCCUGAUAGUGCUAAGGGGGCCUGGAAGUUUGGACUGGGCAGAGCUCAACACAGCGUGGCCAAGUGGCUGUGGCUAGACUGCCUCUCUGGACUCCUCGUCACUCAGCAGGGCAUCUCUGAGAGAAAUGCC [A77C U108C]	1.6
UACGUAGGUGGUUUUCCCCUGAUAGUGCUAAGGGGGCCUGGAAGUUUGGACUGGGCAGAGCUCAACACAGCGUGGCCAAGUGGCUGUGGCUAAACUGCCUCUCUGGAUUCCUCGUCACUCAGCAGGGCAUCUCUGAGAGAAAUGCC [A77C G93A]	0.06
UACGUAGGUGGUUUUCCCCUGAUAGUGCUAAGGGGGCCUGGAAGUUUGGACUGGGCAGAGCUCAACACAGCGUGGCCAAGUGGCUGUGGCUAGACUGCCCCUCUGGAUUCCUCGUCACUCAGCAGGGCAUCUCUGAGAGAAAUGCC [A77C U100C]	1.53
